Laboratory results: article PMC6344544, “Illuminating the catalytic core of ectoine synthase through structural and biochemical analysis” (Scientific Reports, 2019)

Tests used:
[1] = target: Paenibacillus lautus ectoine synthase fused at its C-terminus to a Strep-tag II affinity peptide [(Pl)EctC-Strep-tag II] (Paenibacillus lautus Y4.12MC10); assay: SEC-MALS; HPLC-MALS; 200 µl of purified (Pl)EctC protein (2 mg ml^-1) loaded onto a Bio SEC-5 HPLC column; measured mass 32.2 kDa against 15.87 kDa calculated for the monomer
[2] = target: T1, ectoine synthase (Pl)EctC (Paenibacillus lautus, UniProt A0A1R1AV52); assay: X-ray crystal structure ([…] Å); format: binding
T1 construct: full-length (130 amino acids), C-terminal Strep-tag II

purified protein = substrate: CC(=O)NCC[C@H](N)C(=O)O; assay: purified protein; format: binding, Paenibacillus lautus; conditions: Fe2+ active site in the cupin barrel; Trp-21, Arg-25, Asn-38, Thr-40, Tyr-52, Glu-57; acetamide oxygen coordinates the iron

## Paenibacillus lautus ectoine synthase fused at its C-terminus to a Strep-tag II affinity peptide [(Pl)EctC-Strep-tag II] (enzyme)
[1]
  stoichiometry N: 2

## CC1=N[C@H](C(=O)O)CCN1 [ectoine, (S)−2-methyl-1,4,5,6-tetrahydropyrimidine-4-carboxylic acid]
[2]
  X-ray crystal structure (2.5 Å): The ectoine molecule is coordinated within the active site of the (Pl)EctC enzyme through five direct interactions

B1: ectoine synthase (Pl)EctC (Paenibacillus lautus) (protein)
chain: MIVKHLEEIVDTKDDIDTKTWNSRRLLLTKDGMGFSLNDTLIKAGTETLIWYKNHVEAVYCIEGEGEIEVIGGETYPISPGMMYALDGHEKHYLRARSQMRMVCVFNPPLTGAEVHDEEGTYPLLAPISD
notes: full-length (130 amino acids), C-terminal Strep-tag II
Purified protein
  Km: 7.8 mM
